Results published in patent US10633429B2, “Human antibody κ type light chain complex-containing composition and method for producing same” (JAPAN SCIENCE AND TECHNOLOGY AGENCY, priority 2013, dated 2020).

How the values were obtained:
[1] = system: A549 cell line (human alveolar epithelial cancer cell line); assay: Cytotoxicity assay (WST assay), A549 cell line; format: cell-based; settings: Example 6, 24 h, light chain not bound with copper ions set to 100%
Protocol: (§1) The cytotoxicity of each complex-containing composition to cancer cells was tested using cancer cell lines. As the cancer cell lines, A549 cell line (human alveolar epithelial cancer cell line), ES-2 cell line (human ovarian cancer cell line), MOLT-4 cell line (human acute lymphoblastic leukemia T cell line), BxPC-3 cell line (human pancreatic adenocarcinoma cell line), SNU-1 cell line (human metastatic gastric cancer cell line), and PANC-1 cell line (human pancreatic cancer cell line) were used.
(§2) All of these cell lines were purchased from ATCC (American Type Culture Collection). Here, the A549 cell line was cultured using a 10% FCS (fetal calf serum)-containing F-12K culture medium by a general method, the ES-2 cell line was cultured using a 10% FCS-containing McCoy's 5A culture medium by a general method, each of the MOLT-4 cell line, SNU-1 cell line, and BxPC-3 cell line was cultured using a 10% FCS-containing RPMI-1640 culture medium by a general method, the PANC-1 cell line was cultured using a 10% FCS-containing DMEM culture medium by a general method, and the WI-38 cell line was cultured using a 10% FCS-containing EMEM culture medium by a general method.
(§3) First, after being recovered by thawing the frozen cancer cell lines, the recovered cancer cell lines were seeded in a 96-well plate by 100 μL to be 5×10^3 cells/well (the number of seeds was appropriately adjusted by cell species). After culturing was carried out at 37° C. for 24 hours, a culture medium to be added to the 96-well plate was removed by decantation, and then each complex-containing composition prepared at a concentration of about 1 mg/mL was added to each well by 100 μL. After culturing was carried out for 24 hours or 48 hours from the addition of the complex-containing composition (after cells are planted and cultivated for 48 hours or 72 hours), a WST-1 reagent (manufactured by Roche Inc.) was added to each well by 10 μL and incubated for 1, 1.5, and 2 hours to form a formazan dye, and then the absorbance (Abs at 450 nm) of the formazan dye was measured (WST assay). As a control, a human antibody κ type light chain not bound to metal ions or PBS was added instead of the complex-containing composition and cultured for 24 hours or 48 hours, and then WST assay was carried out. Based on the results of the obtained absorbance, the cell survival rate of the well added with the human antibody κ type light chain not bound to metal ions or the well added with the PBS was set to 100%, and the cell survival rate of each well was determined, so as to evaluate the cytotoxicity of the added complex-containing composition.

[2] = system: ES-2 cell line (human ovarian cancer cell line); assay: Cytotoxicity assay (WST assay), ES-2 cell line; format: cell-based; settings: Example 6, 24 h, light chain not bound with copper ions set to 100%
Protocol: as §1, §2, §3

[3] = system: MOLT-4 cell line (human acute lymphoblastic leukemia T cell line); assay: Cytotoxicity assay (WST assay), MOLT-4 cell line; format: cell-based; settings: Example 6, 24 h, light chain not bound with copper ions set to 100%
Protocol: as §1, §2, §3
Meanwhile, in the case of the MOLT-4 cell line, from the time cells were seeded in the 96-well plate, each complex-containing composition prepared at a concentration of about 1 mg/mL was added to each well by 100 μL and cultured for 24 hours or 48 hours, and then WST assay was carried out.

[4] = system: SNU-1 cell line (human metastatic gastric cancer cell line); assay: Cytotoxicity assay (WST assay), SNU-1 cell line; format: cell-based; settings: 24 h, light chain not bound with copper ions set to 100%
Protocol: as §1
(§4) All of these cell lines were purchased from ATCC (American Type Culture Collection). […]
(§5) First, after being recovered by thawing the frozen cancer cell lines, the recovered cancer cell lines were seeded in a 96-well plate by 100 μL to be 5×10^3 cells/well (the number of seeds was appropriately adjusted by cell species). […] After culturing was carried out for 24 hours or 48 hours from the addition of the complex-containing composition (after cells are planted and cultivated for 48 hours or 72 hours), a WST-1 reagent (manufactured by Roche Inc.) was added to each well by 10 μL and incubated for 1, 1.5, and 2 hours to form a formazan dye, and then the absorbance (Abs at 450 nm) of the formazan dye was measured (WST assay). […]

[5] = system: B-16 cell line (mouse melanoma-derived cell) subcutaneous tumor; assay: Cytotoxicity assay in tumor-bearing mouse model, B-16 cell line transplanted; format: in vivo; settings: B-16-transplanted mouse; 32.3 μg per mouse injected into subcutaneous tumor, total of 10 times from 4th day; n=2
Protocol: [Cytotoxicity Assay in Tumor-Bearing Mouse Model]
The cytotoxicity of each complex-containing composition to cancer cells in a tumor-bearing mouse model was tested using tumor-bearing mouse models.
First, the ES-2 cell line (human ovarian cancer-derived cell) or the B-16 cell line (mouse melanoma-derived cell) was subcutaneously transplanted into a mouse to a concentration of 2.5×10^6 cells/mouse. The complex-containing composition was administered against tumors subcutaneously established in the mouse from the 4th day after cancer cell transplantation. The administration of the complex-containing composition was carried out by directly injecting the complex-containing composition into a plurality of sites in the subcutaneous tumor from the outside of the mouse body using a syringe. […]
The volume of the subcutaneous tumor over time was measured from the outside of the mouse body, the volume of the subcutaneous tumor at the 1st day after cancer cell transplantation (next day after transplantation) was set to 1, and the relative tumor volume was determined, so as to evaluate the cytotoxicity of the complex-containing composition to cancer cells in the tumor-bearing mouse model. […]

[6] = system: BxPC-3 cell line (human pancreatic adenocarcinoma cell line); assay: Cytotoxicity assay (WST assay), BxPC-3 cell line; format: cell-based; settings: Example 6; copper-bound light chain 40 μM; 24 h; light chain not bound with copper ions set to 100%
Protocol: as §1, §4, §5

[7] = copper-bound light chain 12.3 μM

| Molecule | Relative cell survival rate ([2]; copper-bound light chain 20 μM) [%] | Relative cell survival rate ([1]; copper-bound light chain 40 μM) [%] | Relative cell survival rate ([2]; copper-bound light chain 40 μM) [%] | Relative cell survival rate ([3]; copper-bound light chain 40 μM) [%] | further results |
| --- | --- | --- | --- | --- | --- |
| #4: human antibody κ type light chain, SEQ ID NO. 12; tested bound with copper ions (protein, bound copper ions; human; Human antibody kappa light chain (#4)) light: DVVMTQTPLSLSVTPGEPASISCRSTQSLLDSDGVNPSFDWYVQKPGQSPQLLIHRGFYRASGVPDRFSGSGSGTDFTLRISRVEAEDVGVYYCMQRIEFPLTFGGGTKVELKRTVAAPSVFIFPPSDEQLKSGTASVVCLLNNFYPREAKVQWKVDNALQSGNSQESVTEQDSKDSTYSLSSTLTLSKADYEKHKLYACEVTHQGLSSPVTKSFNRGEC | 50.3 | – | – | – | Relative cell survival rate ([1]; copper-bound light chain 25.2 μM): 81.8%; Relative cell survival rate ([1]; copper-bound light chain 34.9 μM): 79.1%; Relative cell survival rate ([3]; copper-bound light chain 4 μM): 69.6%; Relative cell survival rate ([3]; copper-bound light chain 20 μM): 42.3%; Relative cell survival rate ([3]; copper-bound light chain 40.4 μM): 24.3%; Relative cell survival rate ([4]; Example 7, Table 5, copper-bound light chain 39.4 μM): 29.5%; Relative tumor volume at 15 days after transplantation, compared to control group (PBS) [5]: about ⅓ |
| #11: human antibody κ type light chain, SEQ ID NO. 14; tested bound with copper ions (protein, bound copper ions; human; Human antibody kappa light chain (#11)) light: DIVMTQTPLSLSVTPGQPASISCKSSQSLLHSDGKTYLYWYLQKPGQSPQLLLYEVSSRFSGVPDRFSGSGSGTDFTLKISRVEAEDVGVYYCMQGIHLPYTFGQGTKLEIKRTVAAPSVFIFPPSDEQLKSGTASVVCLLNNFYPREAKVQWKVDNALQSGNSQESVTEQDSKDSTYSLSSTLTLSKADYEKHKLYACEVTHQGLSSPVTKSFNRGEC | 23.8 | – | – | – | Relative cell survival rate [1, 7]: 73.2%; Relative cell survival rate ([1]; copper-bound light chain 20 μM): 54.5%; Relative cell survival rate [2, 7]: 58.5% |
| #7VL: mutant of light chain #7, full-length SEQ ID NO. 4; tested bound with copper ions (protein, bound copper ions; human; Human antibody kappa light chain (#7 VL)) light: EIVMTQSPLSLPVTPGEPASISCRSSQSLLHSNTRNYLDWYLQKPGQSPQLLIYLGSNRASGVPDRFSGSGSGTDFTLKISRVEAEDVGVYYCMQGLQTPRTFGQGTKVEIKRTVAAPSVFIFPPSDEQLKSGTASVVCLLNNFYPREAKVQWKVDNALQSGNSQESVTEQDSKDSTYSLSSTLTLSKADYEKHKLYACEVTHQGLSSPVTKSFNRGEC | – | 45.9 | 35.7 | 29.4 | – |
| #7RL I: mutant of light chain #7, full-length SEQ ID NO. 10; tested bound with copper ions (protein, bound copper ions; human; Human antibody kappa light chain (#7 RLI)) light: EIVMTQSPLSLPVTPGEPASISCRSSQSLLHSNTRNYLDWYLQKPGQSPQLLIYLGSNRASGVPDRFSGSGSGTDFTLKISRVEAEDVGVYYCMQGLQTPITFGQGTRLEIKRTVAAPSVFIFPPSDEQLKSGTASVVCLLNNFYPREAKVQWKVDNALQSGNSQESVTEQDSKDSTYSLSSTLTLSKADYEKHKLYACEVTHQGLSSPVTKSFNRGEC | – | 41.9 | – | – | Relative cell survival rate [6]: 77.6%; Relative cell survival rate ([4]; Example 6, copper-bound light chain 40 μM): 52.2% |
| #7VL(I): mutant of light chain #7, full-length SEQ ID NO. 6; tested bound with copper ions (protein, bound copper ions; human; Human antibody kappa light chain (#7 VL(I))) light: EIVMTQSPLSLPVTPGEPASISCRSSQSLLHSNTRNYLDWYLQKPGQSPQLLIYLGSNRASGVPDRFSGSGSGTDFTLKISRVEAEDVGVYYCMQGLQTPITFGQGTKVEIKRTVAAPSVFIFPPSDEQLKSGTASVVCLLNNFYPREAKVQWKVDNALQSGNSQESVTEQDSKDSTYSLSSTLTLSKADYEKHKLYACEVTHQGLSSPVTKSFNRGEC | – | 79.0 | 53.7 | 58.7 | – |
| #7VL(RL): mutant of light chain #7, full-length SEQ ID NO. 8; tested bound with copper ions (protein, bound copper ions; human; Human antibody kappa light chain (#7 VL(RL))) light: EIVMTQSPLSLPVTPGEPASISCRSSQSLLHSNTRNYLDWYLQKPGQSPQLLIYLGSNRASGVPDRFSGSGSGTDFTLKISRVEAEDVGVYYCMQGLQTPRTFGQGTRLEIKRTVAAPSVFIFPPSDEQLKSGTASVVCLLNNFYPREAKVQWKVDNALQSGNSQESVTEQDSKDSTYSLSSTLTLSKADYEKHKLYACEVTHQGLSSPVTKSFNRGEC | – | 48.0 | 49.4 | 32.4 | – |
